Assay [1] has as its target Crotalus durissus terrificus venom. Description: ELISA, C.d.t. venom-coated plate, dilution 1:500. A general note: An ELISA detects its analyte on a solid surface through an enzyme-linked reagent.
For assay [2] the target is unchanged. Description: ELISA, C.d.t. venom-coated plate, dilution 1:25.
Assay [3] shares this target. Briefly: ELISA, C.d.t. venom-coated plate (5 µg/ml), dilution 1:625.
Assay [4] has the same target. Briefly: ELISA, C.d.t. venom-coated plate, dilution 1:62,500.
The target is the same in assay [5]. Briefly: ELISA, C.d.t. venom-coated plate, dilution 1:625.
Assay [6] has the same target. Description: ELISA, C.d.t. venom-coated plate, dilution 1:312,500.
Assay [7] shares this target. Briefly: ELISA, C.d.t. venom-coated plate, dilution 1:2,500.
Assay [8] has the same target. Briefly: ELISA, C.d.t. venom-coated plate (5 µg/ml), undiluted.
Assay [9] shares this target. Briefly: ELISA, C.d.t. venom-coated plate, dilution 1:125.
For assay [10] the target is unchanged. Briefly: ELISA, C.d.t. venom-coated plate, dilution 1:3125.
Assay [11] has the same target. Briefly: ELISA, C.d.t. venom-coated plate, dilution 1:12,500.
The target is the same in assay [12]. Briefly: ELISA, C.d.t. venom-coated plate (5 µg/ml), dilution 1:5.
Assay [13] has the same target. Briefly: ELISA, C.d.t. venom-coated plate (5 µg/ml), dilution 1:25.
For assay [14] the target is unchanged. Description: ELISA, C.d.t. venom-coated plate, dilution 1:5.
Assay [15] shares this target. Description: ELISA, C.d.t. venom-coated plate (5 µg/ml), dilution 1:3125.
Assay [16] has the same target. Description: ELISA, C.d.t. venom-coated plate (5 µg/ml), dilution 1:125.

Absorbance (412 nm filter) and absorbance (ELISA) data for 1 substance are collected here from patent publication US20040235118A1.

In the case of “preimmune IgY (PEG preparation from eggs of unimmunized hens or purchased eggs) (antibody)”, the absorbance (412 nm filter) in assay [1] was 0.005 OD; in [4], 0.001 OD; in [6], 0.01 OD; in [7], 0.004 OD; in assay [11], 0.001 OD. Further, the absorbance (ELISA) is 0.016 OD in assay [2]; 0 OD in [3]; under 0 OD in [5]; 0.003 OD in assay [8]; under 0 OD in assay [9]; under 0 OD in assay [10]. Also, the absorbance (ELISA) in [12] is under 0 OD; in [13], 0 OD; in [14], under 0 OD; in assay [15], 0.002 OD; in [16] it was 0.003 OD.
